In paper doi:10.1101/2025.06.10.658867 (bioRxiv, 2025):

Experiments:
[1] = target: the molecule itself; assay: DNA-PAINT super-resolution microscopy with nearest-neighbour distance analysis
[2] = target: Siglec-10_(d1-d2) WT fused to human IgG1 Fc (Siglec-10Fc WT) (human, UniProt Q96LC7); assay: BLI

Binder | mean percent dimers after tunicamycin [1] [%] | mean percent dimers before tunicamycin [1] [%] | percent dimers [1] [%] | Kd [2] [nM]
intracellularly GFP-tagged Siglec-10 R127A in THP-1 cells (receptor, human, UniProt Q96LC7 17-697, looked up) MDGRFWIRVQESVMVPEGLCISVPCSFSYPRQDWTGSTPAYGYWFKAVTETTKGAPVATNHQSREVEMSTRGRFQLTGDPAKGNCSLVIRDAQMQDESQYFFRVERGSYVAYNFMNDGFFLKVTALTQKPDVYIPETLEPGQPVTVICVFNWAFEECPPPSFSWTGAALSSQGTKPTTSHFSVLSFTPRPQDHNTDLTCHVDFSRKGVSAQRTVRLRVAYAPRDLVISISRDNTPALEPQPQGNVPYLEAQKGQFLRLLCAADSQPPATLSWVLQNRVLSSSHPWGPRPLGLELPGVKAGDSGRYTCRAENRLGSQQRALDLSVQYPPENLRVMVSQANRTVLENLGNGTSLPVLEGQSLCLVCVTHSSPPARLSWTQRGQVLSPSQPSDPGVLELPRVQVEHEGEFTCHARHPLGSQHVSLSLSVHYSPKLLGPSCSWEAEGLHCSCSSQASPAPSLRWWLGEELLEGNSSQDSFEVTPSSAGPWANSSLSLHGGLSSGLRLRCEAWNVHGAQSGSILQLPDKKGLISTAFSNGAFLGIGITALLFLCLALIIMKILPKRRTQTETPRPRFSRHSTILDYINVVPTAGPLAQKRNQKATPNSPRTPLPPGAPSPESKKNQKKQYQLPSFPEPKSSTQAPESQESQEELHYATLNFPGVRPRPEARMPKGTQADYAEVKFQ | 69 | 59 | 47 | –
intracellularly GFP-tagged Siglec-10 WT in THP-1 cells (receptor, human, UniProt Q96LC7 17-697, looked up) MDGRFWIRVQESVMVPEGLCISVPCSFSYPRQDWTGSTPAYGYWFKAVTETTKGAPVATNHQSREVEMSTRGRFQLTGDPAKGNCSLVIRDAQMQDESQYFFRVERGSYVRYNFMNDGFFLKVTALTQKPDVYIPETLEPGQPVTVICVFNWAFEECPPPSFSWTGAALSSQGTKPTTSHFSVLSFTPRPQDHNTDLTCHVDFSRKGVSAQRTVRLRVAYAPRDLVISISRDNTPALEPQPQGNVPYLEAQKGQFLRLLCAADSQPPATLSWVLQNRVLSSSHPWGPRPLGLELPGVKAGDSGRYTCRAENRLGSQQRALDLSVQYPPENLRVMVSQANRTVLENLGNGTSLPVLEGQSLCLVCVTHSSPPARLSWTQRGQVLSPSQPSDPGVLELPRVQVEHEGEFTCHARHPLGSQHVSLSLSVHYSPKLLGPSCSWEAEGLHCSCSSQASPAPSLRWWLGEELLEGNSSQDSFEVTPSSAGPWANSSLSLHGGLSSGLRLRCEAWNVHGAQSGSILQLPDKKGLISTAFSNGAFLGIGITALLFLCLALIIMKILPKRRTQTETPRPRFSRHSTILDYINVVPTAGPLAQKRNQKATPNSPRTPLPPGAPSPESKKNQKKQYQLPSFPEPKSSTQAPESQESQEELHYATLNFPGVRPRPEARMPKGTQADYAEVKFQ | 50 | 61 | 67 | –
intracellularly GFP-tagged Siglec-10 R119A in THP-1 cells (receptor, human, UniProt Q96LC7 17-697, looked up) MDGRFWIRVQESVMVPEGLCISVPCSFSYPRQDWTGSTPAYGYWFKAVTETTKGAPVATNHQSREVEMSTRGRFQLTGDPAKGNCSLVIRDAQMQDESQYFFAVERGSYVRYNFMNDGFFLKVTALTQKPDVYIPETLEPGQPVTVICVFNWAFEECPPPSFSWTGAALSSQGTKPTTSHFSVLSFTPRPQDHNTDLTCHVDFSRKGVSAQRTVRLRVAYAPRDLVISISRDNTPALEPQPQGNVPYLEAQKGQFLRLLCAADSQPPATLSWVLQNRVLSSSHPWGPRPLGLELPGVKAGDSGRYTCRAENRLGSQQRALDLSVQYPPENLRVMVSQANRTVLENLGNGTSLPVLEGQSLCLVCVTHSSPPARLSWTQRGQVLSPSQPSDPGVLELPRVQVEHEGEFTCHARHPLGSQHVSLSLSVHYSPKLLGPSCSWEAEGLHCSCSSQASPAPSLRWWLGEELLEGNSSQDSFEVTPSSAGPWANSSLSLHGGLSSGLRLRCEAWNVHGAQSGSILQLPDKKGLISTAFSNGAFLGIGITALLFLCLALIIMKILPKRRTQTETPRPRFSRHSTILDYINVVPTAGPLAQKRNQKATPNSPRTPLPPGAPSPESKKNQKKQYQLPSFPEPKSSTQAPESQESQEELHYATLNFPGVRPRPEARMPKGTQADYAEVKFQ | 69 | 72 | 69 | –
Fab portion of the anti-Siglec-10 mAb S10A (S10A Fab) (Fab, V domains shown) VH: QIQLQQSGAELEKPGASVKMSCKASGYTFTSYWMHWVKQRPGQGLEWIGYINPDTDSTEYNQKFRDKATLTADKSSSTAYMQLSSLTSEDSAVYYCARPYYRYAGYAMDYWGQGTSVTVSS VL: DIKMTQSPSSMYASLGERVTITCKASQDINSYLSWFQQKPGKSPKTLIYRANRLVDGVPSRFSGSGSGQVYSLTISSLEYEDLGIYYCLQYDEFPWTFGGGTKLEIK | – | – | – | 1.1
